For one data set, the target named is Hfq65 (Escherichia coli) (UniProt P0A6X3). The data set can be described thus: EMSA. In general terms: A gel shift assay detects complexes by their altered migration in electrophoresis.
Another data set concerns the target Hfqwt (Escherichia coli) (UniProt P0A6X3). Briefly: EMSA.

For orientation: Kd means the constant that tells how readily two partners part at equilibrium.

Chain of Hfq65 (Escherichia coli) (P0A6X3 1-65): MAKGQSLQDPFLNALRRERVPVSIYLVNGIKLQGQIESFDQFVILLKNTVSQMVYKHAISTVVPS
Chain of Hfqwt (Escherichia coli) (P0A6X3 whole entry): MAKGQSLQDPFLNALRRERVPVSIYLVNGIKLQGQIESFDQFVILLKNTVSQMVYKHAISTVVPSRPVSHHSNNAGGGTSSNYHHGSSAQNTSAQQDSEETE

With RyhB, the figures for the Kd with Hfq65 (Escherichia coli) and with Hfqwt (Escherichia coli) were 35 nM and 16 nM, respectively.

Source of the values: article PMC2248732.
